In the supplement of paper PMC11246515:
± gives the standard deviation of the averaged measurements.

Experiment: total protein half-life in vivo (active degradation + dilution); higher = more stable protein
[1] = E. coli NCM3722 delta-clpP delta-lon delta-hslV, growth: N-lim chemostat, doubling time 6 h
[2] = E. coli NCM3722 delta-clpP, growth: N-lim chemostat, doubling time 6 h
[3] = E. coli NCM3722 delta-hslV, growth: N-lim chemostat, doubling time 6 h
[4] = E. coli NCM3722 delta-lon, growth: N-lim chemostat, doubling time 6 h
[5] = E. coli NCM3722 delta-smpB, growth: N-lim chemostat, doubling time 6 h
[6] = wild type E. coli NCM3722, growth: C-lim chemostat, doubling time 3 h
[7] = wild type E. coli NCM3722, growth: C-lim chemostat, doubling time 6 h
[8] = wild type E. coli NCM3722, growth: C-lim chemostat, doubling time 12 h
[9] = wild type E. coli NCM3722, growth: N-lim chemostat, doubling time 6 h
[10] = wild type E. coli NCM3722, growth: N-lim chemostat, doubling time 12 h
[11] = wild type E. coli NCM3722, growth: P-lim chemostat, doubling time 12 h
[12] = wild type E. coli NCM3722, growth: P-lim chemostat, doubling time 6 h

Sequence | total protein half-life in vivo [1] [h] | total protein half-life in vivo [2] [h] | total protein half-life in vivo [3] [h] | total protein half-life in vivo [4] [h] | total protein half-life in vivo [5] [h] | total protein half-life in vivo [6] [h] | total protein half-life in vivo [7] [h] | total protein half-life in vivo [8] [h] | total protein half-life in vivo [9] [h] | total protein half-life in vivo [10] [h] | total protein half-life in vivo [11] [h] | total protein half-life in vivo [12] [h]
MAIILGIDPGSRVTGYGVIRQVGRQLSYLGSGCIRTKVDDLPSRLKLIYAGVTEIITQFQPDYFAIEQVFMAKNADSALKLGQARGVAIVAAVNQELPVFEYAARQVKQTVVGIGSAEKSQVQHMVRTLLKLPANPQADAADALAIAITHCHVSQNAMQMSESRLNLARGRLR [P0A814] | 4.93 ± 0.29 | 3.57 ± 0.066 | 3.29 ± 0.05 | 3.46 ± 0.7 | 4.18 ± 1.7 | 2.26 ± 0.1 | 4.34 ± 0.17 | 6.6 ± 0.2 | 3.56 ± 0.17 | 5.21 ± 0.39 | 6.3836 ± 0.0059 | –
MAILGLGTDIVEIARIEAVIARSGDRLARRVLSDNEWAIWKTHHQPVRFLAKRFAVKEAAAKAFGTGIRNGLAFNQFEVFNDELGKPRLRLWGEALKLAEKLGVANMHVTLADERHYACATVIIES | 5.28 ± 0.087 | – | – | 5.71 ± 0.46 | 5.093 ± 0.018 | 2.85 ± 0.081 | 5.87 ± 0.26 | 12.9 ± 2.6 | 5.35 ± 0.61 | 11.2 ± 1.1 | 11.5 ± 0.7 | 5.72 ± 0.41
MAINFSPKVGEILECNFGNYPVSQNGPFSTTYYDGRIPPEMIKNRLVVVLNGKINGNACIVVPLSTTRDQDKLKRGMHVEIASNVINDLQFFDQQIRWAKADLVQQVSRNRLNRARTYRGYLNQCLPHELVADIQRAVIKSINAISLIN | – | – | – | – | – | – | 6.12 | 8.7 ± 2 | – | – | 8.56 ± 0.1 | 4.05
MAISIKTPEDIEKMRVAGRLAAEVLEMIEPYVKPGVSTGELDRICNDYIVNEQHAVSACLGYHGYPKSVCISINEVVCHGIPDDAKLLKDGDIVNIDVTVIKDGFHGDTSKMFIVGKPTIMGERLCRITQESLYLALRMVKPGINLREIGAAIQKFVEAEGFSVVREYCGHGIGRGFHEEPQVLHYDSRETNVVLKPGMTFTIEPMVNAGKKEIRTMKDGWTVKTKDRSLSAQYEHTIVVTDNGCEILTLRKDDTIPAIISHDE [P0AE18] | 5.22 ± 1 | 4.545 ± 0.041 | 4.71 ± 0.14 | 5.3 ± 0.74 | 4.36 ± 0.17 | 3.53 ± 0.17 | 5.52 ± 0.18 | 10.4 ± 0.64 | 4.42 ± 0.58 | 6.93 ± 0.49 | 12.19 ± 0.095 | 6.04 ± 0.15
MAKAPKRAFVCNECGADYPRWQGQCSACHAWNTITEVRLAASPMVARNERLSGYAGSAGVAKVQKLSDISLEELPRFSTGFKEFDRVLGGGVVPGSAILIGGNPGAGKSTLLLQTLCKLAQQMKTLYVTGEESLQQVAMRAHRLGLPTDNLNMLSETSIEQICLIAEEEQPKLMVIDSIQVMHMADVQSSPGSVAQVRETAAYLTRFAKTRGVAIVMVGHVTKDGSLAGPKVLEHCIDCSVLLDGDADSRFRTLRSHKNRFGAVNELGVFAMTEQGLREVSNPSAIFLSRGDEVTSGSSVMVVWEGTRPLLVEIQALVDHSMMANPRRVAVGLEQNRLAILLAVLHRHGGLQMADQDVFVNVVGGVKVTETSADLALLLAMVSSLRDRPLPQDLVVFGEVGLAGEIRPVPSGQERISEAAKHGFRRAIVPAANVPKKAPEGMQIFGVKKLSDALSVFDDL | 4.95 ± 0.18 | 4.7 ± 0.74 | 4.63 ± 1.1 | – | 3.88 ± 0.27 | 2.88 ± 0.043 | 4.894 ± 0.039 | 8.52 ± 1.8 | 3.65 ± 0.14 | 5.76 ± 0.49 | 10.2 ± 0.85 | 5.64 ± 0.66
MAKEISSELLNTILTRVGGPGNIASCGNCMTRLRLGVHDSSLVDPNIKTLEGVKGVILTSDQVQVVFGPGKAHRAAKAMSELLGEAPVQDAAEIAAQNKRQLKAKQTSGVQQFLAKFATIFTPLIPGFIAAGLLLGIATLIATVMHVPADAQGTLPDALNFMKVFSKGLFTFLVILVGYNAAQAFGGTGVNGAIIAALFLLGYNPAATTGYYAGFHDFFGLPIDPRGNIIGVLIAAWACARIEGMVRRFMPDDLDMLLTSLITLLITATLAYLIIMPLGGWLFEGMSWLFMHLNSNPFGCAVLAGLFLIAVVFGVHQGFIPVYLALMDSQGFNSLFPILSMAGAGQVGAALALYWRAQPHSALRSQVRGAIIPGLLGVGEPLIYGVTLPRMKPFVTACLGGAAGGLFIGLIAWWGLPMGLNSAFGPSGLVALPLMTSAQGILPAMAVYAGGILVAWVCGFIFTTLFGCRNVNLD | 3.66 | 3.67 | – | – | 6.02 | 3.48 | 5.06 | – | 5.006 ± 0.029 | – | – | –
MAKLTLQEQLLKAGLVTSKKAAKVERTAKKSRVQAREARAAVEENKKAQLERDKQLSEQQKQAALAKEYKAQVKQLIEMNRITIANGDIGFNFTDGNLIKKIFVDKLTQAQLINGRLAIARLLVDNNSEGEYAIIPASVADKIAQRDASSIVLHSALSAEEQDEDDPYADFKVPDDLMW | 5.344 ± 0.0096 | 4.88 ± 0.16 | 2.22 ± 0.1 | 2.88 | 2.37 | 2.24 ± 0.012 | 3.23 ± 0.14 | 4.09 ± 0.13 | 1.95 ± 0.37 | 2.45 ± 0.67 | 4.41 ± 0.084 | 2.17 ± 0.44
